Measurements reported in article PMC5551578 (The Journal of Experimental Medicine, 2017).

Target: H1N1 HA (A/California/04/2009) (Influenza A virus A/California/04/2009 …, UniProt C3W5S1, strain)

| Binder | binding result |
| --- | --- |
| H1-Ab9 (antibody, V domains shown) VH: EVQLVESGAEVKKPGAPVKVSCKASGYTFTRYYIHWVRQAPGQGLEWMGWINPDSGDTKCAQRFQGRVTMTRDTSVSTAYMELRRLGSDDTALYYCARIQLRSDGFDLWGQGTLVTVSS VL: QSALTQPASVSGSPGQSITISCTGTSSDIGSYKFVSWYQQHPGKAPKVMIYEVTQRPSGVSNRFSGSKSGNTASLTISGLQAEDEADYYCCSYAGSSFWVFGGGTTLTVP | binds |
| H1-Ab18 (antibody, V domains shown) VH: EVQLVESGGGLLKPGGSLRLSCAASGFTFNNAWMSWVRQPPGKGLEWVGRIKSESDDETPDYAAPVKGRFDISRDDSKNMLYLQMSSLKTEDTAVYYCATDHSSHYYDRPDYWGQGTLVTVSS VL: QSVLTQSPSASASLGASVKLTCILSSGHSDYAIAWHQQQPEKGPRYLMKLNIDGSHSKGDGIPDRFSGSTSGAERYLTISSLQSEDEADYYCQTWDTGIHVFGGGTRLTVL | binds |
| H1-Ab4 (antibody, V domains shown) VH: EVQLVESGGALRKPGASVRVSCRSSGYRFTSNGISWVRQAPGRGLEWMGWISANSGNTFYAQKFQGRVTMTTDTSASTAYVELRRLRPDDTAMYYCARDVHYRFDSWGQGTLVTVSS VL: QSVLTQPPSASGSPGQSVAISCTGSSSDVGGYDWVSWYQQYPGKGPKLIIYEVNKRPPGVPDRFSGSKSGNTASLTVSGLQTEDEADYYCSSYAGGSRVFGGGTKLTVL | binds |
| H1-Ab38 (antibody, V domains shown) VH: EVQLVESGGGVVQPGRSLRLSCAASGFTFSSNAMHWVRQAPGKGLEWVAVISSDGSSKYYADSVKGRFTISRDNSKNTLFLQMNSLRADDTAIYYCARRYDGFDYWGQGSLVTVSS VL: QSVLTQPASVSGSPGQSITISCTGTSSDVGSYNLVSWYQQHPGKAPKLMIYEVNKRPSGVSNRFSGSKSGNTASLTISGLQAEDEADYHCCSYAGSYTYVFGGGTKLTVL | binds |
| H1-Ab1 (antibody, V domains shown) VH: EVQLVQSGAEVKKPGASVKVSCKASGYIFTSYGISWVRLAPGQGLEWMGWISGYNSNTNYAQKFQGRVTVTADTSTSTAYMELRSLRSDDTAVYYCARDRAHILTGYHFDCWGQGTLVTVSS VL: DIQMTQSPLSLPVTLGQPASISCRSSQSLVYIDGNTYLNWFQQRPGQSPRRLIYKVSNRDSGVPDRFSGSGSGTDFTLKISSVEAEDVGVYYCMQGTHWPPYTFGQGTKVEIK | binds |
| H1-Ab3 (antibody, V domains shown) VH: EVQLVESGAEVKRPGASVKVSCKASGYTFTSYGISWVRQAPGQGLEWMGWISAYNGNTNYAQKLQGRVIMTTDTSTSTAYMELRSLRSDDTAVYYCARDRAHILTGYHFDCWGQGTLVTVSS VL: DIVMTQSPGTLSLSPGERATLSCGASQSVTSSYLAWYQQKPGQAPRLLIYDAPSRATGIPDRFSGSGSGTDFTLTISRLEPEDFAVYYCQQYGSSHVITFGQGTDWRLN | binds |
| H1-Ab2 (antibody, V domains shown) VH: EVQLVQSGAEVKRPGASVKVSCKASGYTFTSYGISWVRQAPGQGLEWMGWISAYNGNTNYAQKLQGRVIMTTDTSTSTAYMELRSLRSDDTAVYYCARDRAHILTGYHFDYWGQGTLVTVSS VL: not shown | binds |
| H1-Ab23 (antibody, V domains shown) VH: EVQLVESGGGLVKPGGSLRLSCAASGFTFSSYSMHWVRQAPGKGLEWISSISSTGNYIYYADSVKGRFTISRDNARNSLYAQLNSLRAEDTAVYYCATGVTSSYGGHPGYFDSWGQGTLVTVSS VL: DIRMTQSPSSLSASVGDRVTITCQASQDISKYLNWYQQKPGKAPKVLIYDASNLETGVPSRFSGSRSGTDFTFTISRLQPEDIGTYYCQQYDDPFLTFGGGTKVEIK | binds |
| H1-Ab15 (antibody, V domains shown) VH: EVQLVESGAEVKKPGSSVTVSCKASGNIFNSYTVSWVRQVPGQGLEWVARVIPTIGMSNYAPKLQGRVTVTADRSTNTAYMEVTSLRSEDTAVYYCATGPSYYYDANGSPTDYWGQGTLVTVSS VL: DIQMTQSSATLSVSPGETATLSCRASQSVSSHLVWYQQKPGQAPRLIIYGASTRATGIPVRFSGSRSGTEFTLTISSLQSEDFAIYYCQQYNNWPWTFGQGTKVEIK | binds |
| H1-Ab16 (antibody, V domains shown) VH: EVQLVESGAEVKKPGSSVKVSCTASGGAFNSHTISWLRQTPGQGLEWMGRIIPILGMANYAQKFHGRVTITADISTNTAYMELSSLRSEDTAVYSCAGGTSRWFGDVEYWGQGSLVTVSS VL: EIVLTQSPLSLPVTLGQPASISCRSSQSLVFSDGNTYLSWFHQRPGQAPRRLIYKVSDRDSGVPDRFSGSGSGTDFTLKISRVEAEDVGVYYCMQGSHWPPSFGPGTKVEIK | binds |
| H1-Ab33 (antibody, V domains shown) VH: EVQLVESGGGLVQPGGSLRLSCAASGFTFSSYAMSWVRQAPGKGLEWVSGINAGGGSTFYADSVKGRFTISRGNSKNTLYLQMHSLRAEDTAIYYCAKDQGNAIFGLVIPSYYFDYWGQGTLVTVSS VL: not shown | binds |
| H1-Ab37 (antibody, V domains shown) VH: LVQLVESGGGLVQPGGSLRLSCAASGFTFSSYAMSWVRQAPGKGLEWVSGINAGGGSTFYADSVKGRFTISRDNSKNTLYLQMHSLRAEDTAIYYCAKDQGNAIFGLVIPSYYFDYWGQGTLVTVSS VL: not shown | binds |
| H1-Ab8 (antibody, V domains shown) VH: EVQLVQSGAEVKKPGASVKVSCKASGYTFADYYIHWVRQAPGQGLEWMGWINPNSGDTNYAQKFQGRVTMTRDTSISTGDMELSRLRSDDTAVYYCARANRGGYFAWAFFDFWGQGTLVTVSS VL: EIVLTQSPGTLSLSPGERATLSCRASQSVSSRNLAWYQQKPGQAPRLLIYGASSRATGIPDRFSGSGSGTDFILSISRLEPEDFAVYYCQQYGSSPLTFGGGTKVEIK | binds |
| H1-Ab11 (antibody, V domains shown) VH: QVQLVQSGAEVKKPGSSVKVSCKASGVTFDTYAFSWVRQAPGQGLEWMGGISPIFTTTNYAQTFQGRVTITADKSTSTAYMELSSLISEDTAVYYCAKGGPTTGTPYYVFGLDVWGQGTMVTVSF VL: DIVMTQSPLSSPVTLGQPASISCRSSQSLVHSDGNTYLSWLHQRPGQPPRLLIYKISNRFSGVPDRFTGSGAGTDFTLKISRVEAEDVGVYYCMQATQFQTFGQGTKVEIK | binds |
| H1-Ab26 (antibody, V domains shown) VH: EVQLVQSGGGLVQPGSSLRLSCAASGFTFSNFAMSWVRQAPGKGLEWVSTINAGSGSKDYANSVKGRFTISRDNTKNTLYLQMKSLRAEDTAVYYCAKDTGHTIFGVVRPYYNGMDVWGQGTTVTVSS VL: DNQMTQSPLSLPVTLGQPASISCRSSQSLVYSDGNTYLNWFQQRPGQSPRRLIYKVSNRDSGVPDRFSGSGSGTDFTLKISRVEAEDVGVYYCMQGTHPYTFGQGTKVEIK | binds |
| H1-Ab27 (antibody, V domains shown) VH: EVQLVQSGGGLVQPGSSLRLSCAASGFTFSNFAMSWVRQAPGKGLEWVSTINAGSGSKDYANSVKGRFTISRDNTKNTLYLQMKSLRAEDTAVYYCAKDTGHTIFGVVRPYYNGMDVWGQGTTVTVSS VL: EIVMTQSPGTLSLSPGERATLSCRASQSVSSSYLAWYQQKPGQAPRLLIYGASSRATGIPDRFSGSGSGTDFTLTITRLEPEDFAVYYCQQYGGSPMYTFGQGTKVEIK | binds |
